Data on 20 molecules can be found in patent publication US5686592, “High-affinity oligonucleotide ligands to immunoglobulin E (IgE)” (NeXstar Pharmaceuticals, Inc.).

Sequences and labels used below:
T1: TAN IgE (chimeric: murine light chains and variable region, human heavy-chain constant region) (Mus musculus/Homo sapiens chimera, UniProt P01854-1 P01854-1:1-428)
T1 chain: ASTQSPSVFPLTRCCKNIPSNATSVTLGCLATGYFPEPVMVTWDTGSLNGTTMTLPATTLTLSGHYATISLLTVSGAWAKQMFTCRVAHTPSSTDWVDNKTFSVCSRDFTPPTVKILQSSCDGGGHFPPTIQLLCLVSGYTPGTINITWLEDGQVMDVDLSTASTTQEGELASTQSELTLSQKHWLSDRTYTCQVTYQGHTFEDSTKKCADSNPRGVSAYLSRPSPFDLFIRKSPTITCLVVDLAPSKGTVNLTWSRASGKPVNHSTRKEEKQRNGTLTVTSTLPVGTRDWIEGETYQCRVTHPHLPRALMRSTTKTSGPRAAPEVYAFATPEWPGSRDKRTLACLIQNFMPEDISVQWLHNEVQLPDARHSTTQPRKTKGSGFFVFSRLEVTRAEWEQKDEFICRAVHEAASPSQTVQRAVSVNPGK

B1: D17.1 (ssDNA)
DNA: CACGTTTATCCGTCCCTCCTAGTGGCGTG
B2: IGEL1.1 (ssRNA)
RNA: GGGAGGACGAUGCGGGUGUGAAUGGUGUUGUGAGGUUACUGUACUUCGGUGGCUGCAGACGACUCGCCCGA
modifications: 2'-NH2 on all C and U
B3: IGEL1.2 (ssRNA)
RNA: GGGAGGACGAUGCGGGUGUGAAUGGUGUUGUGAGG
modifications: 2'-NH2 on all C and U
B4: IGEL7.1 (ssRNA)
RNA: GGGAGGACGAUGCGGAGACGCGUGAACACUAGUAUCACAGUUAAGGAUGCGCGCAGACGACUCGCCCGA
modifications: 2'-NH2 on all C and U
B5: IGEL2.1 (ssRNA)
RNA: GGGAGGACGAUGCGGGUGUGGGGCGAAUGAGAAACGUUACCAGGAAAUGCGACUGCAGACGACUCGCCCGA
modifications: 2'-NH2 on all C and U
B6: IGEL10.1 (ssRNA)
RNA: GGGAGGACGAUGCGGGCCACGCGUGGUUAGGGAUCGCGGACAGCACAAAUCGAAUUUGAUUCGCACCUGGACGGUCAGACGACUCGCCCGA
modifications: 2'-NH2 on all C and U
B7: IGEL2.2 (ssRNA)
RNA: GGGAGGACGAUGCGGGUGUGGGGCG
modifications: 2'-NH2 on all C and U
B8: IGEL8.1 (ssRNA)
RNA: GGGAGGACGAUGCGGACCGCCCGUCGAGGGCUAGGCGUAGAGUCUAACCGGUGCCAGACGACUCGCCCGA
modifications: 2'-NH2 on all C and U
B9: IGEL49.1 (ssRNA)
RNA: GGGAGGACGAUGCGGGUGUGGGGCGGAUAAUGAGUGAACAGAGUGAAAUUCCAGUGUAGCCAGACUGUGCUGUCGCAGACGACUCGCCCGA
modifications: 2'-NH2 on all C and U
B10: IGEL9.1 (ssRNA)
RNA: GGGAGGACGAUGCGGGCGGGGAACAGACGGCUCAGAGCGGCACGAUUGUCAGCCAGCAAUUAUAUCGUGUUGAUGCAGACGACUCGCCCGA
modifications: 2'-NH2 on all C and U
B11: IGEL4.1 (ssRNA)
RNA: GGGAGGACGAUGCGGACGGUAGUCUGGUAGGCGCUGUGACGGCGAGAAUCCGGACCAGACGACUCGCCCGA
modifications: 2'-NH2 on all C and U
B12: IGEL3.1 (ssRNA)
RNA: GGGAGGACGAUGCGGUCCAUCGAUUAGGCGGUCGUGCUGGUGUAGUGUGUAGUGGCAGACGACUCGCCCGA
modifications: 2'-NH2 on all C and U
B13: IGEL5.1 (ssRNA)
RNA: GGGAGGACGAUGCGGGUAUCGGUACGUGUUGGCUUGGGAAGGGGUCCGACGGUGCAGACGACUCGCCCGA
modifications: 2'-NH2 on all C and U
B14: IGEL29.1 (ssRNA)
RNA: GGGAGGACGAUGCGGGUGUCAAUGGUGUUGCGAGGCAAAAAUAACCAGCGCAUAUUCUCGGCCAUGUUGGCGUGCAUACAGACGACUCGCCCGA
modifications: 2'-NH2 on all C and U
B15: IGEL11.1 (ssRNA)
RNA: GGGAGGACGAUGCGGAACAGCACGAGUGUACCUAAGACAGGCGAUGGCACUCGUGGUCGAAAUCAUAUAGUGAUGCAGACGACUCGCCCGA
modifications: 2'-NH2 on all C and U
B16: IGEL48.1 (ssRNA)
RNA: GGGAGGACGAUGCGGGAGUGGGGCGAUGAGAGAGAUCAGAGAACUAGAAGUGAUACAAAAUCUGAGGUUGUUGCGCAGACGACUCGCCCGA
modifications: 2'-NH2 on all C and U
B17: IGEL44.1 (ssRNA)
RNA: GGGAGGACGAUGCGGGUGCGGGGCGAGUAUAUGAAACUUGGCUUGGUAAUGAUCAGAAGUAGUGAGAACUGGGUGCAGACGACUCGCCCGA
modifications: 2'-NH2 on all C and U
B18: IGEL25.1 (ssRNA)
RNA: GGGAGGACGAUGCGGGUGUGAAUGGUGUCGUGAGGACUUAUCAGGCUCCGUGGUGCAGACGACUCGCCCGA
modifications: 2'-NH2 on all C and U
B19: IGEL31.1 (ssRNA)
RNA: GGGAGGACGAUGCGGGUGUGAAUGGUGUUGUGAGGUUCUCGACUGUUUGUGUCUAGCCGUACUUUAGCCUCGGCCAGACGACUCGCCCGA
modifications: 2'-NH2 on all C and U
B20: IGEL13.1 (ssRNA)
RNA: GGGAGGACGAUGCGGGACGGGGGCGGAAUCAUGCAUGUGAGCGAACAGAGAGAGAGCCGUGUAUCCAUUCGUGGUCAGACGACUCGCCCGA
modifications: 2'-NH2 on all C and U

For the first data set, the target named is T2, human IgE (Homo sapiens, UniProt P01854-1 P01854-1:1-428). Kind of data set: filter; modified PBS, 1 mM Mg2+, 37 C. As to conditions: tags: Athens Research Technology; chain copies: 2; label: 5' 32P; hairpin. Here is the method:
Affinities of representative DNA ligands for human IgE were determined by nitrocellulose filter binding experiments and the K_Ds are listed in Table 7. […] Individual clones tested from this pool have affinities in the same range. The affinities were not expected to vary widely since the enriched DNA pool is very homogenous. Ligand D17.0 was picked for truncation experiments. […] However, the affinity could be restored to the level of the full-length ligand by the addition of a 4 basepair stem resulting in the 37 base truncate D17.4. It is possible that the stem in D17.1 is not stable enough to prevent the formation of an alternative secondary structure and that the additional base pair in D17.4 lock in the conformation necessary for IgE binding.
A word on the Kd: it is the equilibrium constant for the complex coming apart. For the molecule B1, the Kd is 82 nM.

A further data set deals with T1, TAN IgE (chimeric: murine light chains …). Kind of data set: inhibition; inhibits IgE binding to FceRI on RBL SX-38 cells, ELISA. The note with it: tags: biotinylated in the receptor assay; gift of Dr. Kinet (NIH); chain copies: 2; label: 32P. The protocol: Rat basophilic leukemia (RBL) cell-line SX-38 which expresses the α, β and γ subunits of the human FcεRI IgE receptor was plated at a concentration of 10^5 cells per well in 96 well flat-bottom microtiter plates. After overnight growth, the cells were washed three times in modified PBS and incubated for one hour at 37° C. in 30 μl of 1.5 μg/ml biotinylated TAN IgE. The cells were washed 3 more times and incubated in 30 μl of 1/100 dilution of horseradish peroxidase conjugated to avidin (Molecular Probes, Eugene, Oreg.) for one hour at 37° C. After three final washes, 30 μl of 3,3',5,5'-tetramethylbenzidine (TMB) substrate (Kirkegaard and Perry Laboratories, Gaithersburg, Md.) were added as a chromogenic substrate and the plate was immediately transferred to the microtiter plate reader (Bio-Tek Instruments, Winooski, Vt.) for analysis. The absorbance at 630 nm was measured every 60 sec over a time span of 15 min. The rate of color development is an indication of the extent of IgE binding to the FcεRI receptor and was determined from the linear part of absorbance versus time graphs (data not shown). […] The inhibition activities of the RNA ligands were determined using the following formula: […]
(An ELISA detects its analyte on a solid surface through an enzyme-linked reagent.)
As a reminder, the Ki is the dissociation constant of the complex between target and ligand, obtained from inhibition or displacement. Higher therefore signals a looser hold on the target. On to B2, for which the Ki was found to be 44 nM.

On to B3, for which affinity was put at a Ki of 21 nM.

The target in the next data set is T2, human IgE. Kind of data set: filter; modified PBS, 1 mM Mg2+, 37 C. The note with it: tags: Athens Research Technology; chain copies: 2; label: 32P.
The molecule B2 displayed a Kd of 138 nM.

B4 registered a Kd of 142 nM.

In the case of B5, binding was put at a Kd of 41 nM.

Consider B6, for which the Kd came out at 69 nM.

For the molecule B7, the Kd was 44 nM.

Turning to B8, the Kd worked out at 225 nM.

In turn, B9 had a Kd of 39 nM.

Molecule B10 displayed a Kd of 105 nM.

The molecule B11 yielded a Kd of 87 nM.

Turning to B12, the affinity, expressed as Kd, was 56 nM.

B13 had a Kd of 145 nM.

As for B14, the Kd was 141 nM.

B15 showed a Kd of 129 nM.

B16 showed a Kd of 30 nM.

Consider B3, for which the affinity, expressed as Kd, was 19 nM.

On to B17, for which the Kd stood at 34 nM.

Turning to B18, binding was characterised by a dissociation constant (Kd) of 186 nM.

Take B19: the Kd was 134 nM.

B20: the affinity, expressed as Kd, was 50 nM.

Another data set concerns the target T1, TAN IgE (chimeric: murine light chains …). Kind of data set: filter; modified PBS, 1 mM Mg2+, 37 C. The note with it: tags: biotinylated in the receptor assay; gift of Dr. Kinet (NIH); chain copies: 2; label: 32P. Here is the method: To test the specificity of the high-affinity interaction between the RNA ligands and human IgE, binding experiments were performed with different immunoglobulins as described in Example 1.
In order to localize which part of the IgE molecule the RNA ligands are contacting, binding experiments were carried out with a hybrid IgE molecule. The light chains and the variable region of this TAN IgE are murine derived, whereas the constant portion of the heavy chains are human.
With B2, the Kd came out at 77 nM.

B3 registered a Kd of 36 nM.
